Source: the nanobody polyreactivity screen of Harvey et al. (2022)

assay: yeast display, Sf9 membrane polyspecificity reagent, FACS + sequencing; frameworks hold sequencing errors
How it was run: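 Galactose induction of a Saccharomyces cerevisiae BJ5465 synthetic nanobody display library ran 36–48 hours. The cells were then stained for 1 hour at 4 °C with 10% biotinylated, detergent-solubilized Sf9 membrane reagent, pulled down on streptavidin microbeads and FACS-sorted into low and high (top ~1%) gates on expression and reagent-binding fluorescence. Labels for polyreactivity follow the gate of origin.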

Sequence	polyreactivity (PSR sort gate)
QVQLVESVGGLDQAGGSLRLSGAASGSIFAHYAMGWYRQAPGKETELVARISWSGGSTYYADSVKGRFTISRDNAKNTVYLQMNSLKPEDTAVYYCARAGRSWDTLYKYYLEHDYWGQGTQETVSS	low polyreactivity
QVQLVESVGGLDQAGVSLRLSCPASVRTLSKNSMGWYRQAPGKARELVATISSVGRTNYAVSVKGRFTISRDNAKNTVYLQMKSLKREDTAVYYCDARRFRGSYYWGLGTQVTVSS	high polyreactivity
QVQLVESVGGLLQAGGRLRLSCAASGSTFGKYVMGWYRPAPGTERELVAAISLSGGSTYYADSVKGRFTISRDNAKNTVYLQMNCRKPEDTALNYCATVGYGYDYWGQATQVTVSS	high polyreactivity
QVQLVESVGGLLQAGGSLRLSCAASGRIFTGYAMGWYRQAPGKERELVAAISSRGGSTYYADSVKGRFTISRDNAKNTVYLQMNSLKPEDTAVYYCNAYQWRHRYTMYYWGQGTQVTVSS	high polyreactivity
QVQLVESVGGLVEAGGRLGISCDDSGIIFRVNTIGCYRQAPGKERELVARSTGAGNKYYADSVKGRFTISRDNAKTTVYLQMNSLKPKDTAVYYCAVREFDNRRVIFYYWGQGTQVTVLS	high polyreactivity
QVQLVESVGGLVQAGASLRLSCAASGRTFATYAKGWYRQAPGKERELVAAISRSGGSTYYADSVKGRFTISRDNAKNTVYLQMHSLKPEDTAGYYCAARYVRQYYRAEDYWGQGTQVTVSS	high polyreactivity
QVQLVESVGGLVQAGASLRLTCAASGSIFWYAMGWYRQAPRQERELVAGISRGGSTYYADSVKGRFTISRDNAKNTVYLQMNSLKPEDTAVYYCNTAGYYGTPSNYWGQGTQVTVSS	low polyreactivity
QVQLVESVGGLVQAGGILRLSCAPSGSTFDVYAMGWYRQAPAKERELVAAISWTGGSTYYADSVKGRFTISRDNAKNTVYLQMNRLKPEDTAVYYCAAYEIQTPRIAHYVGCGRDYLGQGTQVTVSS	high polyreactivity
QVQLVESVGGLVQAGGRLRLSCAASGITFEPYAMGWYRPAPGKEREFVADITWSGGSTYYADSVKGRFTISRDNAKNTVYLQMNSLKPEDTAVYYCAADGWTSYWSDYWGQGTQVTVSS	low polyreactivity
QVQLVESVGGLVQAGGSLPLSCDASGSIFFYYAMGWSRHAPGKESELVAAIDFNGGTTYYADSVKGRFTISRDTAKITVYLQMNSLTPEDTAVYYCAAEWEGTYSTVPDEFNYWGQGTQVTVSS	high polyreactivity
QVQLVESVGGLVQAGGSLRISCAASGFIFKSYSMGWYRQAPGKERELVAAISWIGGRTYYADSVKGRFTISRDNAKYTVYLQMNSLKPEDTAVYYCAKVVKYQSGGGLEYWGQGTQVTVSS	high polyreactivity
QVQLVESVGGLVQAGGSLRISCAASGRIFYNYAMGRYRQAPGKERELVAAISGSGGSTYYADSVKGRFTISRDIAKNTVYLQMNSLIPEDTAVFYCSTSGPQYYSRNFDYWGQGTQVTVSS	low polyreactivity
QVQLVESVGGLVQAGGSLRLICAASGSIFSPYAMGWYRQAPGKERELVAAINFNGGTTYYADSVKGRFTISRDNAKNTVDLQMNSLKPEDTAVYYCAADEVPGFGYPPYPWFDYWGQGTQVTVSS	low polyreactivity
QVQLVESVGGLVQAGGSLRLSCAASGFIFAFYAMGWYRQAPGKESELVAAIRTGGSTNYADSVKGRFTISRDNAKNTVYLQMNSLKPEDTAVYYCAAYGRGGYWRWERDYWGLGTQVTVSS	high polyreactivity
QVQLVESVGGLVQAGGSLRLSCAASGFIFNPYAMGWYRQAPGKERELVAAISWRGASTYYADSVKGRFTISRDNAKNTVYLQMNSLNPEDTAVYYCAADLAYSSTASDYEYWGQGTQVTVSS	low polyreactivity
QVQLVESVGGLVQAGGSLRLSCAASGFIFSYYAMGGYRQAPGKERELVAAISKTGGNTYYADSVKGRFTISRDNAKNTVYLQMNSLKPEDSAVYYCNALRGDWRDMGYWGQGTQVTVSS	high polyreactivity
QVQLVESVGGLVQAGGSLRLSCAASGFIFYWYAMGWYRQAPGKERELVAAITRSGGRTYYADSVKGRFTISRDNAKNTVYLQMNSLKPEDTAVYYCNAGYWLSPYKFGYWGQGTQVTVSS	high polyreactivity
QVQLVESVGGLVQAGGSLRLSCAASGFNFRVYPMGWYRPAPRKERELVAAISVSGGSTTYADSVNGRFTISRDNAKNTVYLQMNSLKPEDTAVYYCAADYDFFSLYLYDYWGQGTQVTVSS	low polyreactivity
QVQLVESVGGLVQAGGSLRLSCAASGFTFASNAMGWYRQAPGKERELVAAISRSGGSTFYADSVKGRFTISRDNAKNTVYLQMNSLKPEDTAVYYCAADIWRVYSTFYYWGQGTQVTVSS	low polyreactivity
QVQLVESVGGLVQAGGSLRLSCAASGFTFDENAMGWYSQAPGINYSGASTYYADSVKGRFTLSRDNAKNTVYLQMNSLKQEDTAVNYCAAEVVAQLNYWGPGTQVTVSS	low polyreactivity
QVQLVESVGGLVQAGGSLRLSCAASGFTFFHYAMGWYRQAPGKERELVAAINTRGSRTYYADSVKGRFTISRDNAKNTVYLQMNSLKPEDTAVYYCAADSVQVYAWQYYYWGQGTQVTVSS	high polyreactivity
QVQLVESVGGLVQAGGSLRLSCAASGFTFKYYAMGWYRQAPGKERELVAAITGTGGSTYYADSVKGRFTISRDTAKNTVYLLMNSLKPEDTAVYYCNAGSARGYVPYDSFAYDYWGQGTQVTVSS	low polyreactivity

Sequence	polyreactivity (PSR sort gate)
QVQLVESVGGLVQAGGSLRLSCAASGFTFRANAMGWYRQAPGKERELVAAINWSGTSTYYADSVKGRFTISRDNAKNTVYLQMNSLKPEDTAVYYCAVLFYGAKYDYWGQGTQVTVSS	low polyreactivity
QVQLVESVGGLVQAGGSLRLSCAASGFTFRYYAMGSYRQAPGKERELVAAISRTGRTYYADSVKGRFTISRDNAKNTVYLQMNSLKPEDTAVYYCAADPPGYVFGKRYYWGHGTQVTVSS	high polyreactivity
QVQLVESVGGLVQAGGSLRLSCAASGFTFSWSTKGWYRQAHAKERELVATISWSGSRTYYADSVKGRFTISRDNAKNTVYLEINSLKPEDTAVYYCNVAPHRQVFYTGQYDYWGQGTQVTVSS	high polyreactivity
QVQLVESVGGLVQAGGSLRLSCAASGFTFYKNAMGWYRQATGKERELVAPITKSGGRTYYADSVKGRFTISRDYAKNTVYLQMNCLKPEDNAVYYCAADISPFGRQPCVIRYSWGQGTQVTVSS	high polyreactivity
QVQLVESVGGLVQAGGSLRLSCAASGGIFQPNAMGWYRQAPGKERELVATISQRGGSPYYSDSVKGRFTISRDNAKNTVYLQMNSVKPEDTAVYYCAAEVYYYYDAIYIARYEYWGQGTQVTVSS	low polyreactivity
QVQLVESVGGLVQAGGSLRLSCAASGGTFLFYGMGWYRQAPGKERELVAVITWSGGSTYYADSVKGRFTISRDNAKNTVYLQMKSLKPEDTAVYYCNAANTGSPDYQSIGYNFNYWGQGTQVTVSS	low polyreactivity
QVQLVESVGGLVQAGGSLRLSCAASGIFRQNAMGWYRQAPGKERELVAGISQSGGSTYYADSVKGRFTISRDNAKNTVYLQMNSLKPEDTAVYYCAVVSIWGYDYWGQGTQVTVSS	low polyreactivity
QVQLVESVGGLVQAGGSLRLSCAASGITFDDYAMGWYRQAPGKERELVAVISSSGGSTYYADSVKGRFTISRDNAKNTVYLQMNSLKPEDTAVYYCAARFEVWYTRRVLLGEYDYWGQGTQVTVSS	low polyreactivity
QVQLVESVGGLVQAGGSLRLSCAASGLIFHRYAMGWYRQAPGKERELVAAISSSGGITYYADSVKGRFTISRDNAKNTVYLQMNSLKPVDTAVYYCPADTGKGSPFSAGLGRAGDYWGHGTQVTVSS	low polyreactivity
QVQLVESVGGLVQAGGSLRLSCAASGNTFKYYAMGWYRQAPGKERELVAGITWTGGRTNYADSVKGRFTISRDNAKNTVYLQMNSLKPEDTAVYYCAADYWWYTGYDYWGQGTQVTVSS	high polyreactivity
QVQLVESVGGLVQAGGSLRLSCAASGNTLVYYDMGWYRQAPGKERELVAAISWSTGSTYYADSVKGRFTISRDNAKNTVYLQMNSLKPEDTAVYYCAAEPELDEYEHDYWGQGTQVTVSS	low polyreactivity
QVQLVESVGGLVQAGGSLRLSCAASGRIFGGYALGWYRQAPGKERELVAAITSSGSTNYADSVKGRFTISRDNAMNTVYLQMNSLKQEDTAVYYCANDFKTVYYWWGMDYWGQGTQVTVSS	low polyreactivity
QVQLVESVGGLVQAGGSLRLSCAASGRIFGPYVMGWYRQAPGKERELVAAISTSGTSTYYADSVKGRFTISRDNAKNTDYLPMNSLKPEDTAVYYCAIRSGARHRLMDYWGQGTQVTVSS	low polyreactivity
QVQLVESVGGLVQAGGSLRLSCAASGRIFLYYAIGWYRQAPGKERELVAVISWSGGSTYYADSVKGRFTISRDNAKNTVYLQMNILKPEDTAVYYCAADVVPTWYGYNYDYWGQGTQVTVSS	high polyreactivity
QVQLVESVGGLVQAGGSLRLSCAASGRIFPAYAMGWYRQAPGKERELVASIRRGGITYADSVKGRFTISRDNAKNTVYLQMKSLKPEDTAVYYCNADYRGWGYHMDYWGQGTQVTVSS	low polyreactivity
QVQLVESVGGLVQAGGSLRLSCAASGRIFYLYAMGWYRQEPGKERELVAVISYGGDRTSYADSVKGRFTISRDNAKNTVYLQMNSLKPEDTAVYYCAARPFYRGYYYWGQGTQVTVSS	high polyreactivity
QVQLVESVGGLVQAGGSLRLSCAASGRMFAKYAMGWYRQAPGKERELVPISSSVGRTYYADSVKGRFTISRDNAKNTVSLHMHSLKPEDTAVYYCNAKPRWYVPYDYSGQGTQVTVSS	high polyreactivity
QVQLVESVGGLVQAGGSLRLSCAASGRPSNRYAMGWYRQAPGKERELVAAISGRGGSTYYADSVKGRFTISRDNAKNTVYLQMNSLKPEDTAVYYCAKQWYVAKISYDYWGQGTQVTVSS	high polyreactivity
QVQLVESVGGLVQAGGSLRLSCAASGRRTIRYNAMGWYRQAPGKEREFVASISRSGGSTYYADSVKGRFTISRDNAKNTVYLQMNSLKPEDTAVYYCAAAASHLVAYGWGYEYYYWGQGTQVTVSS	high polyreactivity
QVQLVESVGGLVQAGGSLRLSCAASGRTFAPNFMGWYRQAPGKERELVAAITYSSASTYYADSVKGRFTISRDNAKNTVYLQMNSLKPEDTAVYYCAARDRYYFGGMYYWGQGTQVTVSS	low polyreactivity
QVQLVESVGGLVQAGGSLRLSCAASGRTFTGNAMGWYRQAPGKERELVAAISQRGGRTNYADSVKGRFTISRDNAKNTVYLQMNSLKPEDTAVYYCAADQSYPKRLPSFEYWGQGTQVTVSS	low polyreactivity
